Consider one molecule from patent US20090041744A1 (published 2009).

Experiment [1] has as its target T1, FVIIa 407C (human, UniProt P08709 61-212; P08709 213-466, N-glycosylated Asn322; engineered Cys407 is largely in mixed disulfides with glutathione, cysteine and homocysteine in the untreated preparation; whether the SPR sample was selectively reduced is not …).
T1 construct: range 1-152;range 153-406; Recombinant, expressed in BHK cells; DNA construct as described in WO 02/077218 A1; Light and heavy chain are joined by a disulfide bond; also called Factor VIIa 407C; FVII 407C
T1 sequence (light): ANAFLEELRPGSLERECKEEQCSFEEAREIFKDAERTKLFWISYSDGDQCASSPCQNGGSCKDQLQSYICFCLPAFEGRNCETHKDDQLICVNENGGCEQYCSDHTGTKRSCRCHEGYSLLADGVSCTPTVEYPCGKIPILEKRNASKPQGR
T1 sequence (heavy): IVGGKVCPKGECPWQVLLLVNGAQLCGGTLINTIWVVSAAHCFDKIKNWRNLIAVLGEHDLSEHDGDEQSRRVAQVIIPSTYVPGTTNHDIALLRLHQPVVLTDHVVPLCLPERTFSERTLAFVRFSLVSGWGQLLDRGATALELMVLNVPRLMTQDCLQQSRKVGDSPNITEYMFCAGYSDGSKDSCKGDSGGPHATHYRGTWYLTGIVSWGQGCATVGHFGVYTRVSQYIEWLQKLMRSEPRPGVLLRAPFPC
Kind of experiment: SPR (Biacore 3000), biotinylated sTF E219C on SA chip, FVIIa as analyte, 5 mM CaCl2, 1:1 Langmuir fit. Here is the method: (§1) Surface plasmon resonance (SPR) analysis of the binding of FVIIa 407C, FVIIa 407C-PEG3.4 k-FVIIa 407C, and FVIIa 407C-PEG20k-FVIIa 407C to immobilized soluble tissue factor—Binding of FVIIa 407C and PEGylated variants to immobilized soluble tissue factor was analyzed by surface plasmon resonance analysis on a Biacore 3000 instrument (Biacore AB, Uppsala, Sweden). Prior to immobilization, sTF E219C was biotinylated at its free cysteine by reacting the protein with 2 mM biotin-PEO-iodoacetamide at pH 7.0 for 20 min. Excess reagent was subsequently removed by gelfiltration on a NAP™5 column (Amersham Biosciences AB, Uppsala, Sweden) equilibrated in HBS-P buffer (10 mM HEPES, 150 mM NaCl, 0.005% P20; Biacore AB, Uppsala, Sweden) containing 5 mM CaCl₂. Biotinylated sTF E19C was immobilized at a density of 2.2 fmol/mm² (˜50 RU) in flow cell 2 of a SA sensor chip (Biacore AB, Uppsala, Sweden). Kinetic analysis was performed at a flow rate of 30 μl/min in running buffer (HBS-P buffer containing 5 mM CaCl₂) using the untreated flow cell 1 for automatic in-line reference subtraction. Serial dilutions of protein from 100 nM to approx. 5 nM were analyzed. Following 3 min equilibration of the flow cells in running buffer, 90 μl protein sample was injected using the KINJECT command. The dissociation phase lasted 9 min and regeneration was performed with a 3-min pulse of 20 mM EDTA in HBS-P buffer. […]
In general terms: Surface plasmon resonance follows binding to a sensor surface in real time, without labels.

Experiment [2] concerns the target T1, FVIIa 407C. Kind of experiment: SPR (Biacore 3000), biotinylated sTF E219C on SA chip, FVIIa as analyte; KD calculated from kon and koff. As to the method: as §1
The target of experiment [3] is T2, FVIIa 407C-PEG3.4k-FVIIa 407C (human, UniProt P08709 61-212; P08709 213-466, N-glycosylated Asn322; Cys407 of the two protomers cross-linked through maleimide-PEG3.4k-maleimide; 10 gamma-carboxylated glutamic acid (GLA) residues; O-glycosylated Ser52 and Ser60; N-glycosylated …).
T2 construct: range 1-152;range 153-406
T2 sequence (light): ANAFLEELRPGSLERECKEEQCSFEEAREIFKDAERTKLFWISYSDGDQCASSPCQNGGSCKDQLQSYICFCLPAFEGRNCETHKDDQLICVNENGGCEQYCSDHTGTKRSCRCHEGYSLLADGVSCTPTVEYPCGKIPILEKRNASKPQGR
T2 sequence (heavy): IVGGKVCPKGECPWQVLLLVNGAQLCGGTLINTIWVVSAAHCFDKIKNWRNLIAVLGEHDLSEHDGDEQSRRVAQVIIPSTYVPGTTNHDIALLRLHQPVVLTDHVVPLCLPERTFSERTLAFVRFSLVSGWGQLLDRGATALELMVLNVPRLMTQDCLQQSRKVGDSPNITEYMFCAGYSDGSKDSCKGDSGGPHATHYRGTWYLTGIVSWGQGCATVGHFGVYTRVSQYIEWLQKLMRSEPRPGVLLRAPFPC
Kind of experiment: SPR (Biacore 3000), biotinylated sTF E219C on SA chip, FVIIa dimer as analyte, 5 mM CaCl2, 1:1 Langmuir fit. As to the method: (§2) Surface plasmon resonance (SPR) analysis of the binding of FVIIa 407C, FVIIa 407C-PEG3.4 k-FVIIa 407C, and FVIIa 407C-PEG20k-FVIIa 407C to immobilized soluble tissue factor—Binding of FVIIa 407C and PEGylated variants to immobilized soluble tissue factor was analyzed by surface plasmon resonance analysis on a Biacore 3000 instrument (Biacore AB, Uppsala, Sweden). Prior to immobilization, sTF E219C was biotinylated at its free cysteine by reacting the protein with 2 mM biotin-PEO-iodoacetamide at pH 7.0 for 20 min. Excess reagent was subsequently removed by gelfiltration on a NAP™5 column (Amersham Biosciences AB, Uppsala, Sweden) equilibrated in HBS-P buffer (10 mM HEPES, 150 mM NaCl, 0.005% P20; Biacore AB, Uppsala, Sweden) containing 5 mM CaCl₂. Biotinylated sTF E19C was immobilized at a density of 2.2 fmol/mm² (˜50 RU) in flow cell 2 of a SA sensor chip (Biacore AB, Uppsala, Sweden). Kinetic analysis was performed at a flow rate of 30 μl/min in running buffer (HBS-P buffer containing 5 mM CaCl₂) using the untreated flow cell 1 for automatic in-line reference subtraction. Serial dilutions of protein from 100 nM to approx. 5 nM were analyzed. Following 3 min equilibration of the flow cells in running buffer, 90 μl protein sample was injected using the KINJECT command. The dissociation phase lasted 9 min and regeneration was performed with a 3-min pulse of 20 mM EDTA in HBS-P buffer. SPR data were fitted to a 1:1 Langmuir binding model using BIAevaluation 4.1 software (Biacore AB, Uppsala, Sweden).

Experiment [4] deals with T3, FVIIa 407C-PEG20k-FVIIa 407C (human, UniProt P08709 61-212; P08709 213-466, N-glycosylated Asn322; Cys407 of the two protomers cross-linked through maleimide-PEG20k-maleimide; 10 gamma-carboxylated glutamic acid (GLA) residues; O-glycosylated Ser52 and Ser60; N-glycosylated …).
T3 construct: range 1-152;range 153-406
T3 sequence (light): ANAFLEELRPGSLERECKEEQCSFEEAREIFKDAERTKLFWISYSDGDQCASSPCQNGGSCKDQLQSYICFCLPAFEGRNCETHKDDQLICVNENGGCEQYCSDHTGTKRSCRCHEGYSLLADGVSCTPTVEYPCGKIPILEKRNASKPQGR
T3 sequence (heavy): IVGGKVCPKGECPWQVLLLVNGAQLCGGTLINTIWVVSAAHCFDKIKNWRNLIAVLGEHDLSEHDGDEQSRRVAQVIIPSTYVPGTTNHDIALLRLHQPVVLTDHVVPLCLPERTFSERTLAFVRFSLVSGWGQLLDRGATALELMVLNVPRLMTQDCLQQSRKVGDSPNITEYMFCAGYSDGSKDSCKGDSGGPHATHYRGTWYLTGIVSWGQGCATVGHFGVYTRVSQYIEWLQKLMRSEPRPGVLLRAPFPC
The experiment is described as above. As to the method: as §2

Experiment [5] has as its target T2, FVIIa 407C-PEG3.4k-FVIIa 407C. In words: SPR (Biacore 3000), biotinylated sTF E219C on SA chip, FVIIa dimer as analyte; KD calculated from kon and koff. As to the method: as §1
In experiment [6] the target is T3, FVIIa 407C-PEG20k-FVIIa 407C. The description is as above. Here is the method:
as §1

B1: sTF (1-219) Glu219→Cys (E219C), biotinylated (receptor)
chain: SGTTNTVAAYNLTWKSTNFKTILEWEPKPVNQVYTVQISTKSGDWKSKCFYTTDTECDLTDEIVKDVKQTYLARVFSYPAGNVESTGSAGEPLYENSPEFTPYLETNLGQPTIQSFEQVGTKVNVTVEDERTLVRRNNTFLSLRDVFGKDLIYTLYYWKSSSSGKKTAKTNTNEFLIDVDKGENYCFSVQAVIPSRTVNRKSTDSPVECMGQEKGEFRC
modifications: Cys219 alkylated with biotin-PEO-iodoacetamide (biotinylated at its free cysteine) ; chain 1 pos 219: Cys alkylated with biotin-PEO-iodoacetamide (biotinylated at its free cysteine), written C. It was captured through this biotin on a streptavidin (SA) sensor chip.
notes: Immobilized on a streptavidin (SA) sensor chip at 2.2 fmol/mm^2 (~50 RU); also called sTF E219C; biotinylated sTF E19C
Take B1: the dissociation rate constant (koff) with FVIIa 407C [1] turned out to be 0.0015 s⁻¹; in experiment [3], 0.00015 s⁻¹; in experiment [4], 0.00016 s⁻¹. In addition, the figures for the association rate constant (kon) (in the experiment with FVIIa 407C [1]; in experiment [3]; in experiment [4]) were 280000 M⁻¹ s⁻¹, 350000 M⁻¹ s⁻¹ and 310000 M⁻¹ s⁻¹, respectively. Also, the Kd with FVIIa 407C [2] was 5.5 nM; in experiment [5], 0.4 nM; in experiment [6] it was 0.5 nM.

In general, koff refers to the rate constant with which the complex falls apart. Higher therefore signals a short-lived complex. One may read the kon as a measure of how fast the partners come together. A higher kon goes with fast association. As a reminder, the Kd is the constant that tells how readily two partners part at equilibrium.
